Measurements taken from patent US7019108B2, “Method and composition for inhibition of angiogenesis and tumor growth using compounds based on a sequence within MMP-2” (priority 2001, dated 2006).
No end group written: not given here.

Experiments:
Assay type in all cases: in vivo
[1] = system: M21 human melanoma tumor cells; assay: M21 human melanoma tumor growth in nude mice, systemic Pexstatin; settings: female nude mice, daily injections of 100 μg
Experimental: M21 human melanoma tumor cells (2×10^6) were injected subcutaneously into female nude mice. Twenty four hours later the mice were treated daily with injections of 100 μg of Pexstatin MMP-2 peptide or PBS controls. Tumor sizes were monitored daily by caliper measurements. Data bars represent the mean tumor volume+the standard errors at each time point. Tumor volumes were estimated using the formula V=L2×W/2, V=volume, L=length, and W=width.

[2] = system: CS-1 melanoma tumor cells; assay: CS-1 melanoma tumor growth on the CAM of chick embryos, systemic Pexstatin
Experimental: CS-1 melanoma tumor cells (5×10^6) were inoculated on the Chorioallantoic Membranes (CAMs) of 10 day old chick embryos. Twenty four hours latter the embryos received a single intravenous injection of 50 μg of Pexstatin peptide or PBS control. At the end of a 7 day incubation period the resulting tumors were resected and wet weights determined. Data bars represent the mean±the standard errors of the tumor weight from 5 to 10 embryos per condition.

[3] = system: βFGF induced angiogenesis; assay: βFGF induced angiogenesis in the chick CAM assay, systemic Pexstatin; settings: 3 day incubation
Experimental: A). Filter discs saturated with βFGF were placed on the CAMs of 10 day old chick embryos. Twenty four hours later, the embryos received a single intravenous injection with 50 μg of Pexstatin, control peptide or PBS. At the end of a 3 day incubation period the filter discs and surrounding CAM tissue were removed and angiogenesis was quantified by counting the number of blood vessel branch points within the area of the filter disc.
B). FIG. 4 illustrates the quantification of the angiogenesis experiment with Pexstatin. Data bars represent the mean+standard errors of 5 to 10 embryos per condition. The angiogenesis index is equal to the number of branch points from experimentally treated embryos minus the number of branch points from CAMs in the absence of βFGF.

B16 melanoma tumor cells = assay: Chick embryo experimental metastasis model, B16 melanoma; settings: 10 μg/embryo inoculated intravenously with the tumor cells, 12 day old chick embryos, 7 day incubation
Experimental: To examine the effects of Pexstatin on melanoma tumor metastasis in vivo, the chick embryo experimental metastasis model was utilized. Briefly, B16 melanoma tumor cells (2.5×10^4) were inoculated intravenously with Pexstatin (10 μg/embryo) or a control peptide in 12 day old chick embryos. In addition, a no treatment control was also added (NT). The Embryos were allowed to incubate for a total of 7 days. At the end of a 7 day incubation period the embryos were sacrificed and the lungs were removed for analysis. The number of melanoma lung lesions were counted for each lobe of the lung. Data bars represent the mean+the standard errors of the metastatic lung lesions from 5 to 10 embryos per condition.

CIFAGDKFWRC (cysteine pairing not given here) [Pexstatin, eleven amino acid peptide based on MMP-2 positions 582–590 flanked by cysteine residues]
toxic side effects during the assay period [1]: no toxic side effects were noted
toxic side effects during the assay period ([2]; chick embryo, single i.v. 50 μg, 7 day incubation): no toxic side effects were noted
inhibition of CS1 melanoma tumor growth (tumor wet weight) as compared to controls ([2]; single intravenous injection of 50 μg, 24 h after inoculation, within 7 days, chick embryo CAM): approximately 60%
toxic side effects in the embryos during the assay period ([3]; chick embryo, single i.v. 50 μg): no toxic side effects were noted
inhibition of βFGF induced angiogenesis (angiogenesis index, branch points) as compared to controls ([3]; single intravenous injection of 50 μg, chick CAM): approximately 90%
inhibition of experimental B16 melanoma metastasis (lung lesions) as compared to controls (B16 melanoma tumor cells): approximately 80%
